Laboratory results published in article doi:10.1101/2020.10.05.326918 (bioRxiv, 2020).

B1: MED27 (natural protein, Mus musculus (endogenous in CH12 cells), UniProt Q9DB40 1-311, looked up)
chain: MADVLSVGVNLEAFSQAISAIQALRSSVSRVFDCLKDGMRNKETLEGREKAFIANFQDNLHSVNRDLNELERLSNLVGKPSENHPLHNSGLLSLDPVQDKTPLYSQLLQAYKWSNKLQYHAGLASGLLNQQSLKRSANQMGVSAKRRPKAQPTTLVLPPQYVDDVISRIDRMFPEMSIHLSRPNGTSAMLLVTLGKVLKVIVVMRSLFIDRTIVKGYNESVYTEDGKLDIWSKSSYQVFQKVTDHATTALLHYQLPQMPDVVVRSFMTWLRSYIKLFQAPCQRCGKFLQDGLPPTWRDFRTLEAFHDTCRQ
B2: MED28 (natural protein, Mus musculus (endogenous in CH12 cells), UniProt Q920D3 1-178, looked up)
chain: MAASLGGMFTGQPPGPPPPPPGLPGQASLLQAAPGAPRPSNSTLVDELESSFEACFASLVSQDYVNGTDQEEIRTGVDQCIQKFLDIARQTECFFLQKRLQLSVQKPDQVIKEDVSELRSELQRKDALVQKHLTKLRHWQQVLEDINVQHKKPADMPQGSLAFLEQASANIPAPLKQT
B3: MED30 (natural protein, Mus musculus (endogenous in CH12 cells), UniProt Q9CQI9 1-178, looked up)
chain: MSTPPLAPTGMASGPFGGPQAQQAAREVNTATLCRIGQETVQDIVYRTMEIFQLLRNMQLPNGVTYHTGTYQDRLTKLQDHLRQLSILFRKLRLVYDKCNENCGGMDPIPVEQLIPYVDEDGSKNDDRAGPPRFASEERREIVEVNKKLKQKNQQLKQIMDQLRNLIWDINAMLAMRN
B4: MED17 (natural protein, Mus musculus (endogenous in CH12 cells), UniProt Q8VCD5 1-649, looked up)
chain: MSGVRAVRISIESACEKQVQEVGLDGTETYLQPLSMSQNLARLAQRIDFSQGSGSEEEEAAGPDGDAPDWGGAGADQDDEEGLVKFQPSLWPWDSVRNNLRSALTEMCVLYDVLSIVRDKKFMTLDPVSQDALPPKQSPQTLQLISKKKSLAGAAQILLKGAERLTKSVAENQENKLQRDFNSELLRLRQHWKLRKVGDKILGDLSYRSAGSLFPHHGTFEVIKNTDIDLDKKIPEDYCPLDVQIPSDLEGSAYIKVSIQKQAPDIGDLGTVNLFKRPLPKSKPGSPHWQTKLEAAQNVLLCKEIFAQLSREAVQIKSQIPHIVVKNQIISQPFPSLQLSISLCHSSDDKKSQKCAAEKPGQEDHLYVLEHNLHLLIREFHKQTLSSIVMPHPASAPFGHKRMRLSGPQAFDKNEINSIQSTEGLLEKIIKQAKHIFLRSRTAATIDSLASRIEDPQIQAHWSNINDVYESSVKVLITSQGYEQICKSIQLQLNIGVEQVRVVHRDGRVIMLSHQEQELQDFLLSQMSQHQVHAVQQLAKVMGWQVLSFSNHVGLGPIESIGNASAITVASPSGDYAISVRNGPESGSKIMVQFPRNQCKDLPKSDVLQDSKWSHLRGPFKEVQWNKMEGRNFVYKMELLMSALSPCLL
B5: MED29 (natural protein, Mus musculus (endogenous in CH12 cells), UniProt Q9DB91 1-199, looked up)
chain: MAAPQPQAAAVSSASGVSGPGSAGGPGPQQQPQPTQLVGSAQSGLLQQQQQDFDPVQRYKMLIPQLKESLQTLMKVAAQNLIQNTNIDNGQKSSDAPLQRFDKCLEEFYALCDQLELCLRLAHECLSQSCDSAKHSPTLVPTATKPDAVQPDSLPYPQYLAVIKAQITCAKDIHTALLDCANKVTGKTTAPSTGPGGSL

What was measured:
Assay in all cases: cryo-EM structure
MED14 = MED14 (Mus musculus (endogenous in CH12 cells), UniProt A2ABV5 1-1459)
Chain of MED14 (A2ABV5 whole entry): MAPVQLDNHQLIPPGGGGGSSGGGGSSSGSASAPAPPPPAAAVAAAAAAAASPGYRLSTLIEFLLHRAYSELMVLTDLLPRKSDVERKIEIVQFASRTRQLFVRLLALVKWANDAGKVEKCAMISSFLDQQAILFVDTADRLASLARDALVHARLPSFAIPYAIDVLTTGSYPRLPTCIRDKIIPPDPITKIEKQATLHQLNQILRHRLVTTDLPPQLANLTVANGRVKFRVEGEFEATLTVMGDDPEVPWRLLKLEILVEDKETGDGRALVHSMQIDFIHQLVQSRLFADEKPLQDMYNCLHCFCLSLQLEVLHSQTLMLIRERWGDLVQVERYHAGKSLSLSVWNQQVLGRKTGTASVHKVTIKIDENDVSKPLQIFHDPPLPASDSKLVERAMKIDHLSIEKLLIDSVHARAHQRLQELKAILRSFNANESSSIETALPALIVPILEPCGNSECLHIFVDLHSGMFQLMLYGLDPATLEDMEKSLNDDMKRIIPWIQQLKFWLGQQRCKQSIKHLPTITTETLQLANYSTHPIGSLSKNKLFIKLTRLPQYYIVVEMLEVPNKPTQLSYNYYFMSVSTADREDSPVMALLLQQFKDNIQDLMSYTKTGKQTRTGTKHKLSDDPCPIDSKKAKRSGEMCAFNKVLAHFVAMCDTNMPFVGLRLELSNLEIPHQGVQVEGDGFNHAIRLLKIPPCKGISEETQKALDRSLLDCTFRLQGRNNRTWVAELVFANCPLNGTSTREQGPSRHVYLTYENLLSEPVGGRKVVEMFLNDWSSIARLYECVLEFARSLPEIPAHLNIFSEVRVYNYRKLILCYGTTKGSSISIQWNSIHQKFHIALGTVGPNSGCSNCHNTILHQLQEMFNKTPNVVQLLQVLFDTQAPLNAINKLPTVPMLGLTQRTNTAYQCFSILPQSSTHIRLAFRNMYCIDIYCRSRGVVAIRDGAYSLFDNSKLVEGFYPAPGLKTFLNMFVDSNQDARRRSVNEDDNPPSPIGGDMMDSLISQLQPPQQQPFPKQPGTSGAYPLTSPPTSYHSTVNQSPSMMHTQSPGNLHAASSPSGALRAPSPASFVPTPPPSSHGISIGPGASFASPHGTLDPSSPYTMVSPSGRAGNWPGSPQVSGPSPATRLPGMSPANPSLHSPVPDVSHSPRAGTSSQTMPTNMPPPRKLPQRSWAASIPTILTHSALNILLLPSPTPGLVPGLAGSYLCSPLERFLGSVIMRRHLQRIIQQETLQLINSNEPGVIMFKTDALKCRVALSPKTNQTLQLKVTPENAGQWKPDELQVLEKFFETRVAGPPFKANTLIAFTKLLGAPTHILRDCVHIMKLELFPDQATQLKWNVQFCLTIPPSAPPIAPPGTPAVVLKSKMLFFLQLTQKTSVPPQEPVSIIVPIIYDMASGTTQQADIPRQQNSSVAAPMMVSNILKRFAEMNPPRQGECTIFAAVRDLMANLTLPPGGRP

MED17 = biological target: B4
MED16 = biological target: T1, MED16 (Mus musculus (endogenous in CH12 cells), UniProt Q6PGF3 1-828)
T1 sequence (looked up): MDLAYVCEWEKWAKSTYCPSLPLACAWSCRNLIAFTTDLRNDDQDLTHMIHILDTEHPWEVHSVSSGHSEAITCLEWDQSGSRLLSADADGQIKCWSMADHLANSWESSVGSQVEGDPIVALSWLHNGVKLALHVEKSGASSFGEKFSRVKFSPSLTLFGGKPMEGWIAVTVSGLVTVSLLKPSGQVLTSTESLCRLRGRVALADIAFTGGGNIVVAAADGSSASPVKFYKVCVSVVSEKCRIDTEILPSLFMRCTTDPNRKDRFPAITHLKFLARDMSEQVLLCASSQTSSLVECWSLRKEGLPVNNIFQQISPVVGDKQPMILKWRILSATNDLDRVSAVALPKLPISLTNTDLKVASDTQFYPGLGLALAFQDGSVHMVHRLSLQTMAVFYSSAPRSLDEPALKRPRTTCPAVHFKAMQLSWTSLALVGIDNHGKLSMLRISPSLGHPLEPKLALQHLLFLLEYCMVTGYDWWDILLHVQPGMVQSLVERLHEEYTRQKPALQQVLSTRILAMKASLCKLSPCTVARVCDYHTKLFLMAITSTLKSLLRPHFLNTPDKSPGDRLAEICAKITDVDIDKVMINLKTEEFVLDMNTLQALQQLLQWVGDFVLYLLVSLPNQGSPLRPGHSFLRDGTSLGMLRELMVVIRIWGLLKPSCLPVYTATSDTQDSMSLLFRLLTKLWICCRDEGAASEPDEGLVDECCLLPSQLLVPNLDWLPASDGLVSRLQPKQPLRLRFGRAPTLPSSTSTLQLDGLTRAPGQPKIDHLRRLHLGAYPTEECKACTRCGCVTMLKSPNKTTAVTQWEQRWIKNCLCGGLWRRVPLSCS

MED15 = biological target: T2, MED15 (Mus musculus (endogenous in CH12 cells), UniProt Q924H2 1-789)
T2 sequence (looked up): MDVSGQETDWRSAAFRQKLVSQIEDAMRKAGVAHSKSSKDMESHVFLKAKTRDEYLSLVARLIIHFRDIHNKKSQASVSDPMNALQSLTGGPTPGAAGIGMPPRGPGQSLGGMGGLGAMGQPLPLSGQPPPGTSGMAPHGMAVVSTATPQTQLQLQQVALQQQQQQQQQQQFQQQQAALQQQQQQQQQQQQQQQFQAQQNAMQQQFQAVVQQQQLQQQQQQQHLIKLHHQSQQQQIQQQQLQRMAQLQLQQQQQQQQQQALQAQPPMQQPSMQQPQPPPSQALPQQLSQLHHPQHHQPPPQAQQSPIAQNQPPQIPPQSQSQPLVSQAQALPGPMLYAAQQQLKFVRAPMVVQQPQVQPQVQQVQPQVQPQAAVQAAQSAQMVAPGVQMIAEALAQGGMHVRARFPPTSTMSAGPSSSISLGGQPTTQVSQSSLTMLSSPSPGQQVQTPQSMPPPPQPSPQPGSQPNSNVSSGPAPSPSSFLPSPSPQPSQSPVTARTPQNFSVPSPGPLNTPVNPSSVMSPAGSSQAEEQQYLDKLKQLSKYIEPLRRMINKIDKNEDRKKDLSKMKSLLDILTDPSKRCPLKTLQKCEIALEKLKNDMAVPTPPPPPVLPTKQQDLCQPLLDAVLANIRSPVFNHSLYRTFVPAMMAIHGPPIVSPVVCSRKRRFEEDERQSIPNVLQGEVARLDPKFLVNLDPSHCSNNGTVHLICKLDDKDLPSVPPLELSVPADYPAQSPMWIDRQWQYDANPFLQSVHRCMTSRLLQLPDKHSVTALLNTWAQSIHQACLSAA

MED29 = biological target: B5
MED30 = biological target: B3
MED27 = biological target: B1
MED22 = biological target: T3, MED22 (Mus musculus (endogenous in CH12 cells), UniProt Q62276 1-200)
T3 sequence (looked up): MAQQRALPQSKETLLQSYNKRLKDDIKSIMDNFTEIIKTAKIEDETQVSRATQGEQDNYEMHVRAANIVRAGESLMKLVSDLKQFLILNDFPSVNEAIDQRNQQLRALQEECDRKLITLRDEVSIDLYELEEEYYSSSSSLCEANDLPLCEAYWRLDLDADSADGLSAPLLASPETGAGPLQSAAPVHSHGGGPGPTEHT

Measured: binding result

B1
binds: MED14 | MED17 | MED16 | MED15

B2
binds: MED29 | MED30 | MED27 | MED22

B3
binds: MED29 | MED27 | MED22

B4
binds: MED14 | MED15

B5
binds: MED14 | MED16 | MED27 | MED15
